Laboratory results reported in patent US20200347130A1 (JIANGSU HENGRUI MEDICINE, published 2020).

T1: CD96 epitope peptide #1 (17-36) (human)
T1 peptide: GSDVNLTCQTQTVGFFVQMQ

T2: CD96 epitope peptide #2 (32-51) (human)
T2 peptide: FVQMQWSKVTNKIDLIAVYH

T3: CD96 epitope peptide #5 (77-86) (human)
T3 peptide: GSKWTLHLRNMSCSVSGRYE

T4: CD96 epitope peptide #6 (92-111) (human)
T4 peptide: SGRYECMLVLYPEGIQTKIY

T5: CD96 epitope peptide #7 (107-126) (human)
T5 peptide: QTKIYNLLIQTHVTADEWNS

T6: CD96 epitope peptide #8 (122-141) (human)
T6 peptide: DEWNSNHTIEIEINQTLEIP

T7: CD96 epitope peptide #11 (166-185) (human)
T7 peptide: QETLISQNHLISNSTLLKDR

T8: CD96 epitope peptide #12 (181-200) (human)
T8 peptide: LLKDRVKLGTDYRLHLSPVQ

T9: CD96 epitope peptide #13 (196-215) (human)
T9 peptide: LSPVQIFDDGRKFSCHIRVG

T10: CD96 epitope peptide #14 (211-230) (human)
T10 peptide: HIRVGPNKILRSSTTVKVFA

T11: CD96 epitope peptide #15 (220-239) (human)
T11 peptide: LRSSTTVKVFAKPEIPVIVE

T12: CD96 epitope peptide #16 (235-254) (human)
T12 peptide: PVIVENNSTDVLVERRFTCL

T13: CD96 epitope peptide #17 (250-269) (human)
T13 peptide: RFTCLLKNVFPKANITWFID

T14: CD96 epitope peptide #20 (295-314) (human)
T14 peptide: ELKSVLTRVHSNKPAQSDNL

T15: CD96 epitope peptide #22 (325-344) (human)
T15 peptide: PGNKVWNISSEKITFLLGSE

B1: ch1720 (antibody, human IgG4 S228P, kappa, V domains shown)
VH: EFQLQQSGPELVKPGASVKISCKASAYSLTDYNMNWVKQSNGKSLEWIGVINPSYGISSYNQKFKGKATLTVDQSSSTAYMHLNSLTSEDSAVYYCARQLRLPGYFDVWGTGTTVTVSS
VL: DIKMTQSPSSKNASLGERVTITCKASQDINSYLNWFQQKPGKSPKTLIYRASRLVDGVPSRFSGSGSGQDYSLTISSLEYEDMGIYYCLKYDEFPYTFGGGTKLEIKR
notes: also called chimeric antibody corresponding to m1720
B2: ch1718 (antibody, human IgG4 S228P, kappa, V domains shown)
VH: EFQLQQSGPELVKPGASVKISCKASAYSITDYNMNWVKQSNGKSLEWIGVINPSYGITDYNQNFKDKATLTVDQSSSTAYMQLNSLTSEDSAVYYCAIQLRLPGYFDVWGTGTTVIVSS
VL: DIKMTQSPSSMYASLGERVTITCKASQDINNYLNWFQQKPGKSPKTLIYRANRLVDGVPSRFSGSGSGQDYSLTISSLEYEDMGIYYCLKYDEFPYTFGGGTKVEIKR
notes: also called chimeric antibody corresponding to m1718
B3: ch1719 (antibody, human IgG4 S228P, kappa, V domains shown)
VH: QVQLKESGPGLVAPSQSLSITCTVSGFSLISYGVSWVRQPPGKGLEWLGVIWGDGNTNYHSVLISRLSIRKDDSKSQVFLKLNSLQTDDTATYYCAKNNYYGSRYGYPMDYWGQGTSVTVSS
VL: DIVMTQSHKFMSTSVGDRVSITCKATQDVGTAVAWYQQKPGHSPKLLIYWASTRHTGVPERFTGSGSGTDFTLTIDNVQSEDLADYFCQQYGSSVLTFGAGTKVELRR
notes: also called chimeric antibody corresponding to m1719
B4: ch1721 (antibody, human IgG4 S228P, kappa, V domains shown)
VH: QVQLKESGPGLVAPSQSLSITCTVSGFSLISYGVNWVRQPPGKGLEWLGVIWGDGSTNYHSALISRLSISKDDSKSQVFLNLNSLQTDDTATYYCAKNYFYGSRYGYAMDSWGQGISVTVSS
VL: DIQMTQSPASLSAAVGETVTITCRASENIYSSLAWYQQKQGKSPQLLVYNAKTLIETVASRFSGSGSGTQYSLKINSLQPEDFGSFYCQHHYGTPYTFGGGTKLEIKR
notes: also called chimeric antibody corresponding to m1721

How the values were obtained:
[1] = target: T1, CD96 epitope peptide #1 (17-36); assay: peptide ELISA ('-' indicates no binding, table note)
Method: (§1) The epitopes recognized by anti-CD96 antibody were detected by the assay of binding the antibody to different polypeptide fragments of CD96 protein. The fragments of different polypeptides of the CD96 antigen were coated on the microtiter plate. The signal density after the antibody was added was used to judge the binding activity of the antibody and the polypeptide. The specific experimental method is as follows:
(§2) The polypeptides were diluted to a concentration of 20 μg/ml with PBS buffer (Shanghai Yuanpei Biotechnology Co., Ltd. Cat No. B320), pH 7.4, added to a 96-well microtiter plate (Corning, Cat No. CLS3590-100EA) at a volume of 50 μl/well, and coated at 4° C. overnight. After discarding the liquid, 250 μl/well of 5% skim milk (BD skim milk, Cat No. 232100) blocking solution diluted with PBS was added, and the plate was incubated in an incubator at 37° C. for 3 hours. After blocking, the blocking solution was discarded, and the plate was washed 5 times with PBST buffer (pH 7.4 PBS containing 0.05% tween-20). 50 μl/well of different concentrations of the antibodies to be tested (hybridoma purification antibody or humanized antibody) diluted with sample dilution was added, and the plate was incubated in an incubator at 37° C. for 2 hours. […] After washing the plate 5 times with PBST, 50 μl/well of TMB chromogenic substrate (KPL, Cat No. 52-00-03) was added, the plate was incubated at room temperature for 5-15 min, followed by adding 50 μl/well of 1M H₂SO₄ to stop the reaction. The absorption value was read at 450 nm with a microplate reader (Thermo Scientific MuLtiskan MK3), and the epitopes that CD96 antibody can recognize were analyzed.

[2] = target: T2, CD96 epitope peptide #2 (32-51); assay: as above
Method: as §1, §2

[3] = target: T3, CD96 epitope peptide #5 (77-86 as …); assay: as above
Method: as §1, §2

[4] = target: T4, CD96 epitope peptide #6 (92-111); assay: as above
Method: as §1, §2

[5] = target: T5, CD96 epitope peptide #7 (107-126); assay: as above
Method: as §1, §2

[6] = target: T6, CD96 epitope peptide #8 (122-141); assay: as above
Method: as §1, §2

[7] = target: T7, CD96 epitope peptide #11 (166-185); assay: as above
Method: as §1, §2

[8] = target: T8, CD96 epitope peptide #12 (181-200); assay: as above
Method: as §1, §2

[9] = target: T9, CD96 epitope peptide #13 (196-215); assay: as above
Method: as §1, §2

[10] = target: T10, CD96 epitope peptide #14 (211-230); assay: as above
Method: as §1, §2

[11] = target: T11, CD96 epitope peptide #15 (220-239); assay: as above
Method: as §1, §2

[12] = target: T12, CD96 epitope peptide #16 (235-254); assay: as above
Method: as §1, §2

[13] = target: T13, CD96 epitope peptide #17 (250-269); assay: as above
Method: as §1, §2

[14] = target: T14, CD96 epitope peptide #20 (295-314); assay: as above
Method: as §1, §2

[15] = target: T15, CD96 epitope peptide #22 (325-344); assay: as above
Method: as §1, §2

[16] = target: T1, CD96 epitope peptide #1 (17-36); assay: peptide ELISA, peptide coated
Method: as §1, §2

[17] = target: T3, CD96 epitope peptide #5 (77-86 as …); assay: peptide ELISA, peptide coated
Method: as §1, §2

[18] = target: T10, CD96 epitope peptide #14 (211-230); assay: peptide ELISA, peptide coated
Method: as §1, §2

[19] = target: T13, CD96 epitope peptide #17 (250-269); assay: peptide ELISA, peptide coated
Method: as §1, §2

Row | Binder | binding result [1] | binding result [2] | binding result [3] | binding result [4] | binding result [5] | binding result [6] | binding result [7] | binding result [8] | binding result [9] | binding result [10] | binding result [11] | binding result [12] | binding result [13] | binding result [14] | binding result [15] | binding result [16] | binding result [17] | binding result [18] | binding result [19]
1 | B1 | no binding | no binding | no binding | no binding | no binding | no binding | no binding | no binding | no binding | no binding | no binding | no binding | no binding | no binding | no binding | – | – | – | –
2 | B2 | – | – | – | – | – | – | – | – | – | – | – | – | – | – | – | binds | binds | binds | binds
3 | B3 | no binding | no binding | no binding | no binding | no binding | no binding | no binding | no binding | no binding | no binding | no binding | no binding | no binding | no binding | no binding | – | – | – | –
4 | B4 | – | – | – | – | – | – | – | – | – | – | – | – | – | – | – | binds | binds | binds | binds
